From patent publication US9878137B2, “Bioactive agent delivery devices and methods of making and using the same” (The Regents of the University of California, priority 2012, dated 2018)

Assay: In vitro drug permeation studies across caco-2 monolayer on Transwell inserts
Assay type: in vitro ADME, Human
Details: PEGDMA 15% Texas red-BSA, 30% FITC-BSA, 45% DNP-BSA reservoirs of same device; FIG. 6
Method: In vitro drug permeation studies. The drug loaded microdevices were released within 2 min from the wafers using 8 M potassium hydroxide (KOH) solution that was preheated to 40° C. The released microdevices being less dense than water was ultracentrifuged (30 kDa Amicon ultra centrifugal filters) and washed with PBS twice for release and permeation studies. Human colorectal adenocarcinoma epithelial cells (caco-2 ATCC) were grown to confluency (transepithelial electrical resistance plateau at 900-1000Ω) on 50% collagen-ethanol (Type 1, Becton Dickinson, Franklin Lakes, N.J.) treated 24-well Transwell® inserts. The caco-2 cells were maintained in Modified Eagle's Media (MEM) with 20% fetal bovine serum (Invitrogen), 2 mM L-glutamine, 1.5 g/L sodium bicarbonate, 2.5 g/L glucose, 10 mM HEPES buffer, 1.0 mM sodium pyruvate, and 1 mg/mL penicillin/streptomycin for 5 days or more prior to seeding. […] Discrete time (20 min) samples were taken from both the upper and lower chamber of the Transwell® for the different drug loaded systems and observed for fluorescence using a Packard Fluorocount Microplate Fluorometer (Meriden, Conn.).
To measure the drug elution kinetics of the various microdevices, release of the different fluorophore tagged BSAs were monitored, in vitro, from hydrogel laden microdevices. […]

| Substance | relative release rate at different crosslinking ratio |
| --- | --- |
| Texas red-BSA: fluorescently labeled bovine serum albumin, model fluorophore-drug | released faster than FITC-BSA |
| FITC-BSA: fluorescently labeled bovine serum albumin, model fluorophore-drug | released faster than DNP-BSA |
